We go through 1 molecule from patent US20100069462A1 (JICHI MEDICAL UNIVERSITY, published 2010).

In this experiment the target is T1, PHB2-FLAG (human PHB2 protein with a FLAG tag fused to the carboxyl terminus) (human, UniProt O35129 1-299 (mouse entry)).
T1 construct: Expressed in HeLa cells; immunoprecipitated with an anti-FLAG antibody from purified mitochondrial fractions; also called prohibitin 2; not shown: FLAG tag at the C-terminus
Nature of the experiment: immunoprecipitation and mass spectrometry on purified HeLa mitochondrial fractions (summary of Example 3). The protocol:
First, immunoprecipitation (IP) analysis and mass spectrometry (MASS analysis) were conducted using purified mitochondrial fractions derived from HeLa cells expressing PHB2-FLAG, which had been prepared in Example 1.
In IP analysis, an immunoprecipitation method was performed using an anti-FLAG antibody, the precipitates were subjected to 12% SDS-PAGE, protein staining was performed, and then proteins that had been co-precipitated with the PHB2-FLAG protein were detected.

T1 sequence (O35129 whole entry, the tested form may be a part): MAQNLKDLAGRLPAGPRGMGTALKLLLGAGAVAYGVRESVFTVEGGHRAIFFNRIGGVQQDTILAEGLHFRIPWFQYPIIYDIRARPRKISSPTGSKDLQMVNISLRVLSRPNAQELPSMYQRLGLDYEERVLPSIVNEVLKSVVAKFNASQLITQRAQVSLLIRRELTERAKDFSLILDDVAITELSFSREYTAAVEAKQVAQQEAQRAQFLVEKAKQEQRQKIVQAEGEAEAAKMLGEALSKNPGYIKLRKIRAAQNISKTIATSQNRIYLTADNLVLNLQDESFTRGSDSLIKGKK

B1: PHB1 protein (other, human, UniProt P35232 2-272, looked up)
chain: AAKVFESIGKFGLALAVAGGVVNSALYNVDAGHRAVIFDRFRGVQDIVVGEGTHFLIPWVQKPIIFDCRSRPRNVPVITGSKDLQNVNITLRILFRPVASQLPRIFTSIGEDYDERVLPSITTEILKSVVARFDAGELITQRELVSRQVSDDLTERAATFGLILDDVSLTHLTFGKEFTEAVEAKQVAQQEAERARFVVEKAEQQKKAAIISAEGDSKAAELIANSLATAGDGLIELRKLEAAEDIAYQLSRSRNITYLPAGQSVLLQLPQ
notes: Endogenous protein co-precipitated from HeLa mitochondrial fractions; also called prohibitin
In the case of B1, the binding result was “binds”.
